In article PMC3621463 (Nature Communications, 2012) one finds Kd data, which are given here for one molecule.

The target of the experiment is HDM2 (used for surface plasmon resonance and the competitive binding assay) (UniProt Q00987 1-491). Description: SPR. Background: SPR reads the build-up and loss of mass on a sensor chip optically.
Chain of HDM2 (used for surface plasmon resonance and the competitive binding assay) (Q00987 whole entry): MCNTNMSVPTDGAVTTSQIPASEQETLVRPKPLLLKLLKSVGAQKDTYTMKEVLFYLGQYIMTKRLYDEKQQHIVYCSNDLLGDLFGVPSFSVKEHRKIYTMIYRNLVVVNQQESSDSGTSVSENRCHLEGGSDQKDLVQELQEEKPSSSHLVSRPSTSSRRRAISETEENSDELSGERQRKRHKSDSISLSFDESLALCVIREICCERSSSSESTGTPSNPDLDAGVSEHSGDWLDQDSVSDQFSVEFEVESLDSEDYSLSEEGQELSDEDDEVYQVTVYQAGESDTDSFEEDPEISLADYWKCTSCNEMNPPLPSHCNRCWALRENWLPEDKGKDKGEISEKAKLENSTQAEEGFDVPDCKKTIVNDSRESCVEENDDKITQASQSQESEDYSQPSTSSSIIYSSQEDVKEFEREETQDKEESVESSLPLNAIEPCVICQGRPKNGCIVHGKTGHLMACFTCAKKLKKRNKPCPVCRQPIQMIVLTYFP

As to LWKLLPEDDVLSPLPSQAM (isoaspartate at 29 and 30) [p53 peptide (amino acids 22-40) N29,30IsoD], binding was characterised by a dissociation constant (Kd) of 694 µM.
